Substitutions are numbered along the chain they refer to.
B1: 107_B12 (scFv)
scFv: QMQLVQSGAEVKKPGAPVKVSCKVSGYTFTDYYMHWVQQAPGKGLEWMGLVDPEDGETIYAEKFQGRVTITADTSTDTAYMELSSLRSEDTAVYYCATDATTPYWGMTAWGQGTLVTVSSLEGGGGSGGGGSGGGASDIQMTQSPSSLSASVGDRVTITCQASQDISNYLNWYQQKPGRAPKVLIYDASNLETGVPSRFSGSGSGTEFTLTISNLRPDDFATYYCQQGDSFPLTFGGGTKVEIK
notes: not shown: 6xHis/tri-FLAG tags
B2: 107_C1 (scFv)
scFv: B1 scFv with T108S, A109M
notes: as for B1
B3: 107_C2 (scFv)
scFv: B1 scFv with T108V, A109K
notes: as for B1
B4: 107_C4 (scFv)
scFv: B1 scFv with G106S, M107P, T108W, A109M
notes: as for B1
B5: 107_C5 (scFv)
scFv: B1 scFv with G106Y, M107P, T108I, A109V
notes: as for B1
B6: 107_C6 (scFv)
scFv: B1 scFv with T108S, A109V
notes: as for B1
B7: 108 E2 (scFv)
scFv: B1 scFv with G106T, M107P, T108W, A109V
notes: as for B1
B8: 108_C8 (scFv)
scFv: B1 scFv with G106F, M107P, T108Y, A109I
notes: as for B1
B9: 108_C11 (scFv)
scFv: B1 scFv with G106F, M107P, T108I, A109I
notes: as for B1
B10: 108_C12 (scFv)
scFv: B1 scFv with T108A, A109S
notes: as for B1
B11: 108_D1 (scFv)
scFv: B1 scFv with G106T, M107P, T108W, A109K
notes: as for B1
B12: 108_D2 (scFv)
scFv: B1 scFv with G106A, M107P, T108W, A109V
notes: as for B1
B13: 108_D3 (scFv)
scFv: B1 scFv with G106F, M107P, T108Y, A109V
notes: as for B1
B14: 108_D4 (scFv)
scFv: B1 scFv with T108S, A109G
notes: as for B1
B15: 108_D5 (scFv)
scFv: B1 scFv with G106S, M107P, T108H, A109T
notes: as for B1
B16: 108_D7 (scFv)
scFv: B1 scFv with T108D, A109M
notes: as for B1
B17: 108_D9 (scFv)
scFv: B1 scFv with G106Y, M107P, T108Y, A109V
notes: as for B1
B18: 108_D10 (scFv)
scFv: B1 scFv with T108S, A109H
notes: as for B1
B19: 108_D11 (scFv)
scFv: B1 scFv with M107A, T108A
notes: as for B1
B20: 108_D12 (scFv)
scFv: B1 scFv with G106T, M107P, T108Y, A109V
notes: as for B1
B21: 108_E1 (scFv)
scFv: B1 scFv with G106F, M107P, T108L, A109V
notes: as for B1
B22: 108_E4 (scFv)
scFv: B1 scFv with T108I, A109W
notes: as for B1
B23: 108_E5 (scFv)
scFv: B1 scFv with T108W, A109I
notes: as for B1
B24: 108_E7 (scFv)
scFv: B1 scFv with T108W, A109R
notes: as for B1
B25: 108_E8 (scFv)
scFv: B1 scFv with G106W, T108Q, A109K
notes: as for B1
B26: 108_E10 (scFv)
scFv: B1 scFv with G106F, M107P, T108W, A109V
notes: as for B1
B27: 108_E11 (scFv)
scFv: B1 scFv with W105C, G106S, M107R, A109S
notes: as for B1
B28: 108_E12 (scFv)
scFv: B1 scFv with G106L, M107A, T108A, A109E
notes: as for B1
B29: 108_F2 (scFv)
scFv: B1 scFv with T108S, A109S
notes: as for B1
B30: 108_F3 (scFv)
scFv: B1 scFv with T108A, A109K
notes: as for B1
B31: 108_F6 (scFv)
scFv: B1 scFv with W105C, G106C, M107T, T108I, A109E
notes: as for B1
B32: 108_F11 (scFv)
scFv: B1 scFv with A100G, T101S, T102N, P103L, Y104S, G106Q, T108D, A109V
notes: as for B1
B33: 108_G1 (scFv)
scFv: B1 scFv with G106F, M107P, T108R, A109M
notes: as for B1
B34: 108_G3 (scFv)
scFv: B1 scFv with G106A, M107P, T108W, A109R
notes: as for B1
B35: 108_G5 (scFv)
scFv: B1 scFv with G106W, T108Q, A109S
notes: as for B1
B36: 108_G6 (scFv)
scFv: B1 scFv with G106F, M107P, T108V, A109W
notes: as for B1
B37: 109 H2 (scFv)
scFv: B1 scFv with T108W, A109E
notes: as for B1
B38: 109_G8 (scFv)
scFv: B1 scFv with T108A, A109T
notes: as for B1
B39: 109_G10 (scFv)
scFv: B1 scFv with G106F, M107P, T108R, A109V
notes: as for B1
B40: 109_G11 (scFv)
scFv: B1 scFv with G106W, M107T, T108A, A109N
notes: as for B1
B41: 109_G12 (scFv)
scFv: B1 scFv with T108A
notes: as for B1
B42: 109_H1 (scFv)
scFv: B1 scFv with M107V, T108Q, A109K
notes: as for B1
B43: 109_H3 (scFv)
scFv: B1 scFv with T108Q, A109Q
notes: as for B1
B44: 109_H5 (scFv)
scFv: B1 scFv with M107A, T108Q, A109E
notes: as for B1
B45: 109_H6 (scFv)
scFv: B1 scFv with G106F, M107P, T108R, A109T
notes: as for B1
B46: 109_H7 (scFv)
scFv: B1 scFv with G106F, M107P, T108R, A109W
notes: as for B1
B47: 109_H8 (scFv)
scFv: B1 scFv with G106F, M107P, T108R, A109S
notes: as for B1
B48: 109_H9 (scFv)
scFv: B1 scFv with A109K
notes: as for B1
B49: 109_H11 (scFv)
scFv: B1 scFv with T108A, A109Q
notes: as for B1
B50: 110_A2 (scFv)
scFv: B1 scFv with T108S, A109T
notes: as for B1
B51: 110_A3 (scFv)
scFv: B1 scFv with M107V, T108Q, A109V
notes: as for B1
B52: 110_A5 (scFv)
scFv: B1 scFv with G106Y, M107P, T108F, A109V
notes: as for B1
B53: 110_A8 (scFv)
scFv: B1 scFv with G106C, T108A, A109I
notes: as for B1
B54: 110_A9 (scFv)
scFv: B1 scFv with T108A, A109G
notes: as for B1
B55: 110_B3 (scFv)
scFv: B1 scFv with A100M, T101E, T102L, P103N, W105Y, T108D, A109V
notes: as for B1
B56: 110_B5 (scFv)
scFv: B1 scFv with T108M, A109S
notes: as for B1
B57: 110_B6 (scFv)
scFv: B1 scFv with A100T, T101D, T102L, P103K, W105Y, T108D, A109V
notes: as for B1
B58: 110_B7 (scFv)
scFv: B1 scFv with A100G, T101L, T102W, P103M, W105Y, T108D, A109V
notes: as for B1

Biological target: T1, MET928 (cMET protein derived from construct 25-928) (human, UniProt P08581 25-928)
T1 construct: MET ectodomain, residues 1-24 are the leader; produced in Lec 8 cells; background text says the ectodomain is furin-cleaved into alpha (25-307) and beta chains; biotinylated form used in selections; also called MET928 extracellular domain; Met extracellular domain
Assay: ELISA, soluble scFv

T1 sequence (P08581 25-928): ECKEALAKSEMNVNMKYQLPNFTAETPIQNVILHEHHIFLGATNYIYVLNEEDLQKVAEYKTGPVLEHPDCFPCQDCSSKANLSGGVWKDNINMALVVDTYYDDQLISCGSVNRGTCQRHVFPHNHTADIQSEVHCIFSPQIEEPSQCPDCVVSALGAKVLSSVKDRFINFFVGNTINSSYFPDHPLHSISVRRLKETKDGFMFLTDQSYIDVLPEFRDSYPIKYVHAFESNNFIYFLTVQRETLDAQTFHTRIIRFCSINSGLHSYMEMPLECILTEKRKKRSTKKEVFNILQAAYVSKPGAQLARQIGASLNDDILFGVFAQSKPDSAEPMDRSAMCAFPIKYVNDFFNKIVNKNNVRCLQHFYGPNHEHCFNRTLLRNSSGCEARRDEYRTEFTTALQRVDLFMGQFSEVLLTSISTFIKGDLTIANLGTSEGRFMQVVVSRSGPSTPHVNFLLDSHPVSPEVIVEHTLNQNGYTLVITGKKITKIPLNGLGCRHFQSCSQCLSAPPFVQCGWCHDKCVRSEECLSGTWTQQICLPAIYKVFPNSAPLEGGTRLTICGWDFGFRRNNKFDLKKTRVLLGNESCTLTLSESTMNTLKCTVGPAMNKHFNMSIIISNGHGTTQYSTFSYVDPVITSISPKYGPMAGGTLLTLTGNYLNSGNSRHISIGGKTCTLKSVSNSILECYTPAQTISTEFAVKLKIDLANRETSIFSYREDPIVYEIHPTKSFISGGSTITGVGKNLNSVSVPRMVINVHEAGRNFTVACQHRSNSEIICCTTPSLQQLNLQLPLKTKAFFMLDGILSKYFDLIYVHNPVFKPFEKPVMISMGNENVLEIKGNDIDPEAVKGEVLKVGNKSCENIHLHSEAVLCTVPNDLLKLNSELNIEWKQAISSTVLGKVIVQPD

Binder | binding result
B1 | binds
B2 | binds
B3 | binds
B4 | binds
B5 | binds
B6 | binds
B7 | binds
B8 | binds
B9 | binds
B10 | binds
B11 | binds
B12 | binds
B13 | binds
B14 | binds
B15 | binds
B16 | binds
B17 | binds
B18 | binds
B19 | binds
B20 | binds

Binder | binding result
B21 | binds
B22 | binds
B23 | binds
B24 | binds
B25 | binds
B26 | binds
B27 | binds
B28 | binds
B29 | binds
B30 | binds
B31 | binds
B32 | binds
B33 | binds
B34 | binds
B35 | binds
B36 | binds
B37 | binds
B38 | binds
B39 | binds
B40 | binds

Binder | binding result
B41 | binds
B42 | binds
B43 | binds
B44 | binds
B45 | binds
B46 | binds
B47 | binds
B48 | binds
B49 | binds
B50 | binds
B51 | binds
B52 | binds
B53 | binds
B54 | binds
B55 | binds
B56 | binds
B57 | binds
B58 | binds

— patent US20150147274A1 (CANCER RESEARCH TECHNOLOGY, published 2015)
